Molecular target: Salmonella SJW1660 flagellin capable of forming L-type straight filaments (Salmonella (S. typhimurium)) (UniProt P06179)
Assay: co-sedimentation; monomers of SJW1660 flagellin and FliC(XynA) mixed at 1:1 to 1:5 (w/w) in 20 mM Tris-HCl, 150 mM NaCl (pH 7.8), polymerized with ammonium sulfate (0.4-0.6 M), 2 days at room temperature; centrifuged, pellet dissolved in buffer without AS, SDS-PAGE with densitometry; filaments also seen by dark-field microscopy and AFM

Substance: FliC(XynA) fusion protein (flagellin-xylanase A chimera) (from UniProt P18429 29-213)
- band intensity of FliC(XynA) in the copolymer pellet, 1:1 mixing ratio (FliC band 49.3): 49.6
- band intensity of FliC(XynA) in the copolymer pellet, 1:2 mixing ratio (FliC band 50.7): 34.2

— paper PMC3179519
